Assay results from patent US20260008815A1, “CYCLIC PEPTIDE OR SALT THEREOF, AND USES THEREOF” (FUJIFILM Corporation, priority 2023, published 2026).
Numbered stars: 1 amine (or outer) side, 2 acyl side, 3 side chain; on linkers, the order of the positions; unused ones are H or OH. Bridge positions count the residues as written; N and C are the ends. Ends that are not written are not given here. acetyl = acetyl (haloacetyl before ring closure) on the side-chain amine, O=C(C[*:1])[*:2]; COCH2 = acetyl group that carries the bridge

Biological target: T1, Recombinant Human FGFR2 alpha (IIIc) Fc Chimera Protein (Homo sapiens, UniProt P21802)
T1 construct: Fc (chimera); purchased R&D systems 712-FR-050
Assay: ELISA binding affinity of enzymatically synthesized peptide to FGFR
Conditions: ELISA luminescence signal at 10 nmol/L peptide, SEQ ID NO: 47 at 10 nmol/L standardized to 1; enzyme synthesis product
Outline: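 FGFR2 alpha (IIIc) Fc chimera (5 ng/well) was immobilized, and Myc-tagged peptide was bound 3 h at room temperature, then detected with anti-Myc antibody (2 h) and chemiluminescent substrate. Signal was corrected against FGFR-free wells. Score A–D was the luminescence at 10 nmol/L peptide, normalized to cyclic peptide SEQ ID NO: 47.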

T1 sequence (P21802 with tags, fused parts or gaps limits assumed): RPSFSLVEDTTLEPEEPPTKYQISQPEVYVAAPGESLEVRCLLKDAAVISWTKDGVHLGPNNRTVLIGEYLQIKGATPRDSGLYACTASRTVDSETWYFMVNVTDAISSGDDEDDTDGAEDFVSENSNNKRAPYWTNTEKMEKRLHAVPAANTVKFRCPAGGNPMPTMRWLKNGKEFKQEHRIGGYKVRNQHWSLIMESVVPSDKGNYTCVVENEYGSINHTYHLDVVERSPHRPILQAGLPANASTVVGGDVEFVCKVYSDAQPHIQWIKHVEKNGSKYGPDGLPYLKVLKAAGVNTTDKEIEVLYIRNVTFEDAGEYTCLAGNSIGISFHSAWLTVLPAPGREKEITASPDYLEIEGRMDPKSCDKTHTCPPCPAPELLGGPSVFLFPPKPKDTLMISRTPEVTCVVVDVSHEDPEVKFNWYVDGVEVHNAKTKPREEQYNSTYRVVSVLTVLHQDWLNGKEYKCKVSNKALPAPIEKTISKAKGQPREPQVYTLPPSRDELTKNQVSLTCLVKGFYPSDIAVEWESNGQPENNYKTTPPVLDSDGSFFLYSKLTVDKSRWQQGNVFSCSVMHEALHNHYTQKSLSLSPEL

Substance	Evaluation result of binding affinity to FGFR
428 (ECDQAQQVYALIYRYLYQLQK(COCH2)V; thioether 2-21 via acetyl) [compound 428]	C (0.1 or more and less than 0.5)
384 (QCQLYYLYQYTIAIK(COCH2)T; thioether 2-15 (inferred)) [compound 384]	C (0.1 or more and less than 0.5)
234 (YCEENYLDREQYQYFIYFK(COCH2)Y; thioether 2-19 (inferred)) [compound 234]	A (0.7 or more)
207 (YCEENYLGPEQYQYFIYFK(COCH2)Y; thioether 2-19 (inferred)) [compound 207]	A (0.7 or more)
140 (VCEENYLDPEQYQYFIYFKY; Description of Artificial Sequence: Cyclic peptide) [compound 140]	A (0.7 or more)
252 (YCEENYLDPEQLQYFIYFK(COCH2)Y; thioether 2-19 (inferred)) [compound 252]	C (0.1 or more and less than 0.5)
405 (QCLTQRVYLRQLAYYRLYRK(COCH2)I; thioether 2-20 (inferred)) [compound 405]	C (0.1 or more and less than 0.5)
347 (MCEENYLDPEQYQYFIYFK(COCH2)Y; thioether 2-19) [compound 347]	A (0.7 or more)
361 (QCYYLYWYLYK(COCH2)I; thioether 2-11) [compound 361]	C (0.1 or more and less than 0.5)
409 (LCNNWENYFDWLQWSYYIAYK(COCH2)E; thioether 2-21 (inferred)) [compound 409]	A (0.7 or more)
264 (YCEENYLDPEQYNYFIYFK(COCH2)Y; thioether 2-19) [compound 264]	A (0.7 or more)
295 (YCEENYLDPEQYQYFIVFK(COCH2)Y; thioether 2-19) [compound 295]	A (0.7 or more)
414 (YCNYEWDGARRQIAYYRIFLKL; Description of Artificial Sequence: Cyclic peptide) [compound 414]	C (0.1 or more and less than 0.5)
269 (YCEENYLDPEQYRYFIYFK(COCH2)Y; thioether 2-19) [compound 269]	A (0.7 or more)
339 (YCEENYKDPEQYQYFIYFK(COCH2)Y; thioether 2-19 (inferred)) [compound 339]	A (0.7 or more)
72 (PCPQNFINPVQWRYFQHYK(COCH2)N; thioether 2-19 (inferred)) [compound 72]	A (0.7 or more)
413 (QCDQDAIQWVYDLQYYRVWHKV; Description of Artificial Sequence: Cyclic peptide) [compound 413]	C (0.1 or more and less than 0.5)
97 (QCPQSFINPVQWRYFQHYK(COCH2)N; thioether 2-19) [compound 97]	C (0.1 or more and less than 0.5)
202 (YCEENYSDPEQYQYFIYFK(COCH2)Y; thioether 2-19 (inferred)) [compound 202]	B (0.5 or more and less than 0.7)
58 (KCPQNFANPVQWRYFQHYK(COCH2)N; thioether 2-19 (inferred)) [compound 58]	B (0.5 or more and less than 0.7)
338 (YCEENKLDPEQYQYFIYFK(COCH2)Y; thioether 2-19 (inferred)) [compound 338]	C (0.1 or more and less than 0.5)
343 (YCEENYLDPEQYKYFIYFK(COCH2)Y; thioether 2-19) [compound 343]	A (0.7 or more)
186 (YCEENLLDPEQYQYFIYFK(COCH2)Y; thioether 2-19 (inferred)) [compound 186]	C (0.1 or more and less than 0.5)
132 (ECQENFVDRQQYWYFLSYK(COCH2)F; thioether 2-19 (inferred)) [compound 132]	A (0.7 or more)
249 (YCEENYLDPRQYQYFIYFK(COCH2)Y; thioether 2-19 (inferred)) [compound 249]	A (0.7 or more)
177 (YCETNYLDPEQYQYFIYFK(COCH2)Y; thioether 2-19 (inferred)) [compound 177]	A (0.7 or more)
314 (YCEENYLDPEQYQYFIYFK(COCH2)N; thioether 2-19 (inferred)) [compound 314]	A (0.7 or more)
400 (VCQQDNYFYPQQWFFFVHYK(COCH2)H; thioether 2-20 (inferred)) [compound 400]	A (0.7 or more)
391 (YCEENYLDPEQYQYFHYFK(COCH2)H; thioether 2-19 (inferred)) [compound 391]	A (0.7 or more)

Further lines, results first:

Evaluation result of binding affinity to FGFR	Substance
A (0.7 or more)	353 (YCEENYLDMEQYQYFIYFK(COCH2)Y; thioether 2-19) [compound 353]
A (0.7 or more)	230 (YCEENYLDSEQYQYFIYFK(COCH2)Y; thioether 2-19 (inferred)) [compound 230]
A (0.7 or more)	129 (ECPWNFVNQLQWQYFITYK(COCH2)V; thioether 2-19 (inferred)) [compound 129]
B (0.5 or more and less than 0.7)	171 (YCEFNYLDPEQYQYFIYFK(COCH2)Y; thioether 2-19 (inferred)) [compound 171]
A (0.7 or more)	345 (YCEENYLDPEQYQYFIKFK(COCH2)Y; thioether 2-19) [compound 345]
A (0.7 or more)	244 (YCEENYLDPNQYQYFIYFK(COCH2)Y; thioether 2-19 (inferred)) [compound 244]
C (0.1 or more and less than 0.5)	419 (DCHTREDWQIHHLYQLLYQLK(COCH2)Y; thioether 2-21 via acetyl) [compound 419]
C (0.1 or more and less than 0.5)	383 (QCQLYYLYQYAYALK(COCH2)V; thioether 2-15 (inferred)) [compound 383]
A (0.7 or more)	212 (YCEENYLYPEQYQYFIYFK(COCH2)Y; thioether 2-19 (inferred)) [compound 212]
C (0.1 or more and less than 0.5)	389 (RCHHNFHHARQHGFFWHYK(COCH2)R; thioether 2-19 (inferred)) [compound 389]
A (0.7 or more)	77 (YCPQNFINPVQWRYFQHYK(COCH2)N; thioether 2-19 (inferred)) [compound 77]
B (0.5 or more and less than 0.7)	122 (QCENWVNSTQFEFFWQYK(COCH2)T; thioether 2-18 (inferred)) [compound 122]
C (0.1 or more and less than 0.5)	185 (YCEETYLDPEQYQYFIYFK(COCH2)Y; thioether 2-19 (inferred)) [compound 185]
B (0.5 or more and less than 0.7)	213 (YCEENYLWPEQYQYFIYFK(COCH2)Y; thioether 2-19 (inferred)) [compound 213]
A (0.7 or more)	233 (YCEENYLDEEQYQYFIYFK(COCH2)Y; thioether 2-19 (inferred)) [compound 233]
A (0.7 or more)	358 (YCEENYLDPEQYQYFMYFK(COCH2)Y; thioether 2-19) [compound 358]
A (0.7 or more)	284 (YCEENYLDPEQYQYFQYFK(COCH2)Y; thioether 2-19) [compound 284]
A (0.7 or more)	47 (KCPQNFINPVQWRYFQHYKN; not fully specified; Description of Artificial Sequence: Cyclic peptide) [compound 47]
A (0.7 or more)	320 (YCEENYLDPEQYQYFIYFK(COCH2)R; thioether 2-19 (inferred)) [compound 320]
A (0.7 or more)	265 (YCEENYLDPEQYSYFIYFK(COCH2)Y; thioether 2-19) [compound 265]
A (0.7 or more)	356 (YCEENYLDPEQYMYFIYFK(COCH2)Y; thioether 2-19) [compound 356]
C (0.1 or more and less than 0.5)	91 (QCPQNFINPVQWRYFQHVK(COCH2)N; thioether 2-19 (inferred)) [compound 91]
C (0.1 or more and less than 0.5)	370 (DCQLYYLYQYVLTK(COCH2)V; thioether 2-14) [compound 370]
A (0.7 or more)	224 (YCEENYLDVEQYQYFIYFK(COCH2)Y; thioether 2-19 (inferred)) [compound 224]
A (0.7 or more)	92 (QCPQNFINPVQWRYFQHFK(COCH2)N; thioether 2-19 (inferred)) [compound 92]
A (0.7 or more)	133 (ECLGNYFSHEQYQYLLQYK(COCH2)I; thioether 2-19 (inferred)) [compound 133]
A (0.7 or more)	225 (YCEENYLDFEQYQYFIYFK(COCH2)Y; thioether 2-19 (inferred)) [compound 225]
A (0.7 or more)	395 (YCHENYLDPEQYQYFHYFK(COCH2)H; thioether 2-19 (inferred)) [compound 395]
C (0.1 or more and less than 0.5)	326 (YCEENALDPEQYQYFIYFK(COCH2)Y; thioether 2-19 (inferred)) [compound 326]
